In publication PMC4117581, “Strain-Specific Variation of the Decorin-Binding Adhesin DbpA Influences the Tissue Tropism of the Lyme Disease Spirochete” (PLoS Pathogens, 2014):

B1: DbpAB31, recombinant histidine-tagged DbpA of B. burgdorferi strain B31 (natural protein)
chain: ATKIRLERSAKDITDEIDAIKKDAALKGVNFDAFKDKKTGSGVSENPFILEAKVRATTVAEKFVIAIEEEATKLKETGSSGEFSAMYDLMFEVSKPLQKLGIQEMTKTVSDAAEENPPTTAQGVLEIAKKMREKLQRVHTKNYCTLKKKENSTFTDEKCKNN

Experiments:
[1] = target: Recombinant human decorin (human) (UniProt P07585); experiment: SPR; Biacore 3000; 10 µg biotinylated decorin on an SA chip; 0-500 nM DbpA injected at 10 µL/min, 25°C; control flow cell with PBS; 1:1 Langmuir model
[2] = target: Recombinant human decorin (human) (UniProt P07585); experiment: ELISA; quantitative ELISA; 1 µg decorin coated on microtiter wells; 0.03125-2 µM histidine-tagged DbpA added; detected with mouse anti-histidine tag and HRP anti-mouse IgG; KD from a fit of the curve
[3] = target: T1, Recombinant human decorin (human, UniProt P07585 31-359, biotin (biotinylated decorin on the SA chip in the SPR experiment; sites not stated)); experiment: SPR; Biacore 3000; 10 µg biotinylated decorin on an SA chip; 0-500 nM DbpA injected at 10 µL/min, 25°C; control flow cell with PBS; 1:1 Langmuir model; conditions: both partners purified
T1 construct: Decorin, human, recombinant; Decorin is a proteoglycan that carries dermatan sulfate; Secreted from CHO cells, so probably the mature protein (surmise); source: stably transfected Chinese hamster ovary cells (ATCC CCL 61), purified; gift from MedImmune

[4] = target: T1, Recombinant human decorin; experiment: ELISA; quantitative ELISA; 1 µg decorin coated on microtiter wells; 0.03125-2 µM histidine-tagged DbpA added; detected with mouse anti-histidine tag and HRP anti-mouse IgG; KD from a fit of the curve; conditions: both partners purified

Recombinant human decorin (human), sequence (P07585 31-359): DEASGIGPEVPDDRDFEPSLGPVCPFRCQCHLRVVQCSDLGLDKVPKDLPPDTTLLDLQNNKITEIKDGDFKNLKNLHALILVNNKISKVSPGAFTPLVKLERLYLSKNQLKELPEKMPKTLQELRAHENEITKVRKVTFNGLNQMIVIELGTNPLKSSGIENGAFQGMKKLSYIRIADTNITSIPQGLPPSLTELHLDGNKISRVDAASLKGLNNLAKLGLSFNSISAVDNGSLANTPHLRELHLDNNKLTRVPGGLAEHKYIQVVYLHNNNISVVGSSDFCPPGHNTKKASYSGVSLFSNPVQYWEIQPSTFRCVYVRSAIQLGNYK
T1 sequence (P07585 31-359): as above

| Molecule | Kd [1] [nM] | koff [1] [s⁻¹] | kon [1] [M⁻¹ s⁻¹] | Kd [2] [nM] | Kd [3] [nM] | koff [3] [s⁻¹] | kon [3] [M⁻¹ s⁻¹] | Kd [4] [nM] |
| --- | --- | --- | --- | --- | --- | --- | --- | --- |
| DbpA_(VS461), recombinant histidine-tagged DbpA of B. afzelii strain VS461 (natural protein) | 260 | 0.04 | 152000 | 290 |  |  |  |  |
| DbpA_(N40-D10/E9), recombinant histidine-tagged DbpA of B. burgdorferi strain N40-D10/E9 (from UniProt O50917 30-191) (natural protein) | 710 | 0.07 | 97000 | 850 |  |  |  |  |
| DbpA297, recombinant histidine-tagged DbpA of B. burgdorferi strain 297 (from UniProt O50917 30-187) (natural protein) | 300 | 0.1 | 351000 | 140 |  |  |  |  |
| DbpA_(B356), recombinant histidine-tagged DbpA of B. burgdorferi strain B356 (natural protein) | 840 | 0.06 | 66000 | 950 |  |  |  |  |
| DbpAPBr, recombinant histidine-tagged DbpA of B. garinii strain PBr (natural protein) | 90 | 0.13 | 1.83e+06 | 60 |  |  |  |  |
| B1 |  |  |  |  | 280 | 0.11 | 417000 | 210 |
